Test results taken from patent US20060073508A1 (published 2006).

Target: GRK2 (βARK1)
Experiment: cell-based or functional assay

B1: hemagglutinin epitope-tagged Del301-303 human alpha-2B adrenergic receptor (receptor)
chain: YPYDVPDYAMDHQDPYSVQATAAIAAAITFLILFTIFGNALVILAVLTSRSLRAPQNLFLVSLAAADILVATLIIPFSLANELLGYWYFRRTWCEVYLALDVLFCTSSIVHLCAISLDRYWAVSRALEYNSKRTPRRIKCIILTVWLIAAVISLPPLIYKGDQGPQPRGRPQCKLNQEAWYILASSIGSFFAPCLIMILVYLRIYLIAKRSNRRGPRAKGGPGQGESKQPRPDHGGALASAKLPALASVASAREVNGHSKSTGEKEEGETPEDTGTRALPPSWAALPNSGQGQKEGVCGASPEDEAEEEEEEEEECEPQAVPVSPASACSPPLQQPQGSRVLATLRGQVLLGRGVGAIGGQWWRRRAQLTREKRFTFVLAVVIGVFVLCWFPFFFSYSLGAICPKHCKVPHGLFQFFFWIGYCNSSLNPVIYTIFNQDFRRAFRRILCRPWTQTAW
In the case of B1, the “agonist-promoted whole cell phosphorylation of the receptor (10 µM norepinephrine)” value is reported as 3.28 fold increase.
